Results reported in patent publication US20230212304A1 (BIOSION, published 2023).

T1: recombinant human CTLA4 protein with human IgG1 Fc tag at the C-terminus (Acro biosystems, Cat#CT4-H5255) (human, UniProt P16410 37-162)
T1 sequence (looked up): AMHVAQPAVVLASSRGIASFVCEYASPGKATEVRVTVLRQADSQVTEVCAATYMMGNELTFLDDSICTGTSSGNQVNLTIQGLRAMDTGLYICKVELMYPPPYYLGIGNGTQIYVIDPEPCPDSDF

T2: recombinant human CTLA4-his protein (Acro biosystems, Cat#CT4-H5229) (human, UniProt P16410 37-162)
T2 construct: bought recombinant protein; not shown: his tag
T2 sequence (looked up): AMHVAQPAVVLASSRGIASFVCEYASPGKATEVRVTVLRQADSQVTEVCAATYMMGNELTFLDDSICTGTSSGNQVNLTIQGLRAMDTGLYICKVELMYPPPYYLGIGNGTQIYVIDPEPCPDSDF

T3: cynomolgus monkey CTLA4-his protein (Acro biosystems, Cat#CT4-C5227) (cynomolgus monkey, UniProt G7PL88 36-161)
T3 construct: bought recombinant protein; also called Cynomolgus CTLA4-his; not shown: his tag
T3 sequence: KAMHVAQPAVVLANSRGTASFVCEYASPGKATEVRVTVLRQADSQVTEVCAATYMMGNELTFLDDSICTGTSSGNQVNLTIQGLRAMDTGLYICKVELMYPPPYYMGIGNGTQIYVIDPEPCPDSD


How the values were obtained:
[1] = molecular target: T1, recombinant human CTLA4 protein with …; test: cell-based or functional assay
[2] = molecular target: T2, recombinant human CTLA4-his protein …; test: SPR, Biacore T200; antibody captured, CTLA4-his as analyte
Description: (§1) Un-reacted moieties on the biosensor surface were blocked with ethanolamine. […] The antigen-antibody association kinetics was followed for 2 minutes and the dissociation kinetics was followed for 10 minutes. The association and dissociation curves were fit to a 1:1 Langmuir binding model using BIAcore evaluation software.

[3] = molecular target: T3, cynomolgus monkey CTLA4-his protein …; test: as above
Description: as §1

[4] = molecular target: T1, recombinant human CTLA4 protein with …; test: capture ELISA: antibody captured on anti-mouse IgG F(ab')2 coated plate, biotin human CTLA4-Fc 26 ng/ml, streptavidin-HRP, OD(450-630)
Description: (§2) Plates were washed once with wash buffer (PBS+0.05% v/v Tween-20, PBST) and then blocked with 200 µl/well blocking buffer (PBST with 5% w/v non-fatty milk) for 2 hours at 37° C. […] After a final wash, plates were incubated with 100 µl/well substrate TMB (Innoreagents, Cat#TMB-S-002). The reaction was stopped in 15 minutes at room temperature with 50 µl/well 1M H₂SO₄, and the absorbance of the each well was read on a microplate reader using dual wavelength mode with 450 nm for TMB and 630 nm as the reference wavelength, then the OD (450-630) values were plotted against antibody concentration. Data was analyzed using Graphpad Prism software and EC₅₀ values were reported.

[5] = molecular target: T1, recombinant human CTLA4 protein with …; test: cell based blocking FACS: antibody pre-mixed with human CTLA4-Fc (1 ug/mL), added to Daudi cells; blocked ligands: cell surface CD80/CD86
Description: Daudi cells were harvested from cell culture flasks at the log phase, washed twice and re-suspended in PBS containing 2% v/v Fetal Bovine Serum (FACS buffer). […] Cells were washed twice and re-suspended in FACS buffer. Fluorescence was measured using a Becton Dickinson FACS Canto II-HTS equipment. Data was analyzed using Graphpad Prism software and IC₅₀ values were reported.

[6] = molecular target: T1, recombinant human CTLA4 protein with …; test: competitive ELISA: antibody pre-mixed with biotin human CTLA4-Fc (65 ng/ml), added to plate coated with the benchmark; competitor: coated Yervoy
Description: Plates were washed once with wash buffer, blocked with 200 µl PBST with 5% w/v non-fatty milk, incubated for 2 hours at 37° C., and washed 4 times.
After incubation at 37° C. for 40 minutes, plates were washed 4 times again using wash buffer. Then the plates were added and incubated with 100 µl/well streptavidin conjugated HRP (1:10000 dilution in PBST, Jackson Immuno Research, Cat#016-030-084, 100 µl/well) for 40 minutes at 37° C. Plates were finally washed using wash buffer. Finally, TMB was added and the reaction was stopped using 1M H₂SO₄, and the absorbance of the each well was read on a microplate reader using dual wavelength mode with 450 nm for TMB and 630 nm as the reference wavelength, then the OD (450-630) values were plotted against antibody concentration. Data was analyzed using Graphpad Prism software and IC₅₀ values were reported.

[7] = molecular target: T2, recombinant human CTLA4-his protein …; test: BLI, Octet; antibody from cell supernatant on AHC sensor, CTLA4-his as analyte
Description: Briefly, AHC biosensors (anti-human IgG Fc capture, from ForteBio) were presoaked with 10 mM glycine (pH 1.5) for 3 seconds, and then dipped in a well with running buffer (0.5% w/v BSA in PBST) for 3 seconds, the soaking and dipping steps were repeated for three times. […] A new baseline was run for 180 seconds in another well with running buffer. […] Finally, sensors were presoaked with 10 mM glycine (pH 1.5) for 3 seconds, and then were dipped in a well with running buffer for 3 seconds, the soaking and dipping steps repeated for three times. The association and dissociation curves were fit to a 1:1 Langmuir binding model using ForteBio Data Analysis 8.1.

[8] = molecular target: T1, recombinant human CTLA4 protein with …; test: capture ELISA: antibody captured on coated plate (anti-human IgG Fc for the chimeric antibodies), biotin human CTLA4-Fc, streptavidin-HRP, OD(450-630)
Description: as §2
For the capture ELISA, AffiniPure Goat Anti-Human IgG, Fcy fragment specific (Jackson Immuno Research, Cat#109-005-008) was used instead of AffiniPure Goat Anti-Mouse IgG, F(ab′)₂ fragment specific, 100 µl/well.

EC50 of IL-2 release (GS-J1 T cells + GS-C1/CD80 cells + human CTLA4-Fc, IL-2 HTRF) [1] [nM] | Kd [2] [nM] | koff [2] [s⁻¹] | kon [2] [M⁻¹ s⁻¹] | Kd [3] [nM] | koff [3] [s⁻¹] | kon [3] [M⁻¹ s⁻¹] | EC50 [4] [nM] | IC50 [5] [nM] | IC50 [6] [nM] | Kd [7] [nM] | koff [7] [s⁻¹] | kon [7] [M⁻¹ s⁻¹] | EC50 [8] [nM] | Binder
45.9 | 2.41 | 0.000602 | 249000 | 1.66 | 0.00137 | 829000 | 0.134 | 6.81 | 0.445 | – | – | – | – | mouse anti-CTLA4 monoclonal antibody D1A7 (antibody, V domains shown, mouse mAb purified from hybridoma supernatant) VH: QVTLKESGPGMLQPSQTLSLTCSFSGFSLSSSKLGVGWIRQPAGKGLEWLAHIWWNDDNYYVPSLKSRLTISKDTSNNQVFLKITNVDAADTATYYCVQVPYYTTQPWFAYWGQGTLVTVSA VL: DIQMTQSPASLSASVGETVTITCRASGNIHNYLAWYLQNQGRSPQLLVYNTETLADGVSSRFSGSGSGTQYFLKISSLQPEDFGTYYCQHLWSTPWTFGGGTKLEIK
37.8 | 4.15 | 0.000931 | 224000 | 2.07 | 0.000601 | 290000 | 0.206 | 9.27 | 1.86 | – | – | – | – | mouse anti-CTLA4 monoclonal antibody D1H3 (antibody, V domains shown, mouse mAb purified from hybridoma supernatant) VH: QVQLQQPGAELVNPGASVKLSCKASGYTFTSYWLHWVKQRPGRGLEWIGRIDPNRGTIYYNEKFNNKATVTVDKPSNTAYMQLSRLTLEDSAVYYCARGGSNFYAMDYWGQGTSVTVSS VL: DIQMTQSPASLSASVGETVTITCRTSENIYSYLAWYQQKQGESPQLLVYNAKTLAEGVPSRFSGSGSGTQFSLKINSLQPEDFGSYYCQNHDGIPFTFGSGTKLEIK
– | – | – | – | – | – | – | – | – | – | 33 | 0.00163 | 49300 | – | huD1D5-V10 (antibody, human IgG4 S228P, kappa, V domains shown, humanized IgG4/kappa; tested as 293F cell supernatant on Octet; also called hu CTLA4 D1D5-V10) VH: EVQLVESGGGLVKPGGSLRLSCAASGFTFSDYGMAWVRQAPGKGLEWVAFISNLAYSVYYADTETGRFTISRDNAKNSLYLQMNSLRAEDTAVYYCARSGLPYAMDYWGQGTTVTVSS VL: DIQMTQSPSSLSASVGDRVTITCRASQDISNYLNWYQQKPGKVPKLLIYYISRLHSGVPSRFSGSGSGTDFTLTISSLQPEDVATYYCQQGRMLPWTFGGGTKVEIKR
– | – | – | – | – | – | – | – | – | – | 6.94 | 0.000538 | 77500 | – | huD1D5-V11 (antibody, human IgG4 S228P, kappa, V domains shown, humanized IgG4/kappa; tested as 293F cell supernatant on Octet; also called hu CTLA4 D1D5-V11) VH: EVQLVESGGGLVKPGGSLRLSCAASGFTFSDYGMAWVRQAPGKGLEWVAFISNLAYSVYYADTETGRFTISRDDAKNSLYLQMNSLRAEDTAVYYCARSGLPYAMDYWGQGTTVTVSS VL: DIQMTQSPSSLSASVGDRVTITCRASQDISNYLNWYQQKPGKVPKLLIYYISRLHSGVPSRFSGSGSGTDFTLTISSLQPEDVATYYCQQGRMLPWTFGGGTKVEIKR
– | – | – | – | – | – | – | – | – | – | 37.4 | 0.00133 | 35500 | – | huD1D5-V12 (antibody, human IgG4 S228P, kappa, V domains shown, humanized IgG4/kappa; tested as 293F cell supernatant on Octet; also called hu CTLA4 D1D5-V12) VH: EVQLVESGGGLVKPGGSLRLSCAASGFTFSDYGMAWVRQAPGKGLEWVSFISNLAYSVYYADTETGRFTISRDNAKNSLYLQMNSLRAEDTAVYYCARSGLPYAMDYWGQGTTVTVSS VL: DIQMTQSPSSLSASVGDRVTITCRASQDISNYLNWYQQKPGKVPKLLIYYISRLHSGVPSRFSGSGSGTDFTLTISSLQPEDVATYYCQQGRMLPWTFGGGTKVEIKR
43.6 | 2.24 | 0.000495 | 221000 | 1.18 | 0.000532 | 451000 | 1.11 | – | – | – | – | – | 5.78 | mouse anti-CTLA4 monoclonal antibody D1B8 (antibody, V domains shown, mouse mAb purified from hybridoma supernatant) VH: QIQLQQSGPELVKPGASVKISCKASGYTFTDYYINWVKQRPGQGLEWIGWIYPGNNNTRYNEKFKGKATLTIDTSSSTAFMHLSSLTSEDSAVYFCARYYFDYWGQGTTLTVSS VL: DIQMTQSPSSLSASLGERISLTCRASQEITGYLSWLQQKPDGTIKRLIYAASTLDSGVPQRFSGSRSGSDYSLTISSLESEDFADYYCLQYASYPRTFGGGTKLEIK
– | – | – | – | – | – | – | – | – | – | – | – | – | 2.84 | chimeric D1B8 anti-CTLA4 antibody (antibody, human IgG4 S228P, kappa, V domains shown, mouse variable domains on human IgG4/kappa) VH: QIQLQQSGPELVKPGASVKISCKASGYTFTDYYINWVKQRPGQGLEWIGWIYPGNNNTRYNEKFKGKATLTIDTSSSTAFMHLSSLTSEDSAVYFCARYYFDYWGQGTTLTVSS VL: DIQMTQSPSSLSASLGERISLTCRASQEITGYLSWLQQKPDGTIKRLIYAASTLDSGVPQRFSGSRSGSDYSLTISSLESEDFADYYCLQYASYPRTFGGGTKLEIKR
38.3 | 2.24 | 0.00153 | 671000 | 2.24 | 0.00076 | 340000 | 0.245 | 7.12 | 3.85 | – | – | – | – | mouse anti-CTLA4 monoclonal antibody D2A4 (antibody, V domains shown, mouse mAb purified from hybridoma supernatant) VH: QVQLQQPGAELVKPGSSVNLSCKASGYTFTSYWVHWVKQGPGRGLEWIGRIDPNRGGTYYNENFKTKAALTVDSPSSTAYMHLSSLTSEDSAVYYCARGGLNYYALDYWGQGTSVTVSS VL: DIQMTQSPASLFASLGETVTITCRASENIYSYLAWYQQKQGKSPQLLVYNANTLTEGVPSSFSGSGSGTQFSLKINTLQPEDFGTYYCQHHYGIPFTFGSGTKLEIK
41.5 | 9.06 | 0.000695 | 76700 | 1.96 | 0.000662 | 338000 | 0.0979 | – | 0.445 | – | – | – | – | mouse anti-CTLA4 monoclonal antibody D1G6 (antibody, V domains shown, mouse mAb purified from hybridoma supernatant) VH: EVQLQQSGPELVKPGASVKLSCKASGNTFTTYVLNWVKQKPGQGLEWIGYFNPYNDAIKYNEKFKGKATLTSDKSSSTAYMELSSLTSEDSAVYYCARFEGGGYAMDYWGQGTSVTVSS VL: DIVLTQSPASLAVSLGQRATISCRASQSVGTSSYSYIHWYQQKPGQPPKLLIKYASDLESGVPARFSGSGSGTDFTLNIHPVEEEDTATYYCQHSWEIPYTFGGGTKLEIK
